Tests used:
[1] = target: T1, D2H receptor domain (human D2H transporter, amino acid residues 387-685), His-tag fusion protein (human, UniProt Q07837 387-685); assay: phage ELISA, OD on D2H over OD on BSA
T1 construct: purified under denaturing conditions; also called recombinant D2H; not shown: poly-histidine tag (pET vector) at the NH2-terminal end
T1 sequence: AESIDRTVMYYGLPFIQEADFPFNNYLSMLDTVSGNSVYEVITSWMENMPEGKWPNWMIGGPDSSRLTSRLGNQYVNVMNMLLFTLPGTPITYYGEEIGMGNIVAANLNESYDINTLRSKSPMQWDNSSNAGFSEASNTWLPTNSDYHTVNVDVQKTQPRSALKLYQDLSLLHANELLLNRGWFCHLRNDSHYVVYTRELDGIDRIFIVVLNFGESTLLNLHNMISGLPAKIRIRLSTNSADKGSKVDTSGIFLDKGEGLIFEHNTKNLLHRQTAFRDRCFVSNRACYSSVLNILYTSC
Description: (§1) 6.6. Receptor ELISA Procedure 96 well plates were coated overnight with GIT receptor, BSA and, optionally, IDE (insulin degrading enzyme, an irrelevant His-fusion protein)or hTF. The plates were blocked for one hour with 0.5% BSA-PBS. After clarification, the amplified phage were diluted 1:100 in […] plus 0.05% Tween 20 in PBS and added to the plates. Following incubation of the plates on a rotator for 1 to 2 hours, the plates were washed 5 times with 1% BSA plus 0.05% Tween 20 in PBS. […] After the plates were washed 5 times, as described above, TMB substrate was added to the wells. The plates were read at 650 nm absorbance.
(§2) Binding to fixed Caco-2 cells, D2H and BSA was examined.

[2] = target: T1, D2H receptor domain (human D2H …); assay: phage ELISA, plate coated with D2H domain
Description: as §1, §2

B1: DCX11 (peptide)
peptide: SQGSKQCMQYRTGRLTVGSEYGCGMNPARHATPAYPARLLPRYRAETVESCLAKPHTENSFTNVWKDDKTLDRYANYEGCLWNATGVVVCTGDETQCYGTWVPIGLAIPENEGGGSEGGGSEGGGSEGGGTKPPEYGDTPIPGYTYINPLDGTYPPGTEQNPANPNPSLEESQPLNTFMFQNNRFRNRQGALTVYTGTVTQGTDPVKTYYQYTPVSSKAMYDAYWNGKFRDCAFHSGFNEDPFVCEYQGQSSDLPQPPVNAGGGSGGGSGGGSEGGGSEGGGSEGGGSEGGGSGGGSGSGDFDYEKMANANKGAMTENADENALQSDAKGKLDSVATDYGAAIDGFIGDVSGLANGNGATGDFAGSNSQMAQVGDGDNSPLMNNFRQYLPSLPQSVECRPFVFSAGKPYEFSIDCDKINLFRGVFAFLLYVATFMYVFSTFANILRNKES
notes: Assayed as M13 phage clone displaying the insert
For B1, the D2H/BSA [1] was 3 ratio and the OD [2] was 0.222 OD.

— patent US6703362 (CYTOGEN, dated 2004)
